Among the data in PMC5314338, “Structure of a LOV protein in apo-state and implications for construction of LOV-based optical tools” (Scientific Reports, 2017) are stoichiometry N values, retold here.

In this experiment the target is W619_1-LOV, short LOV protein from Pseudomonas putida (Pseudomonas putida). Description: crystal structure; apo-state; sitting drops grown in the dark, 100 mM MES pH 6.0-6.3, 1 M ammonium sulfate, 14 °C; space group I4(1), two molecules per asymmetric unit.

In general, stoichiometry N refers to a count of units in the complex or per binding partner. With “W619_1-LOV, short LOV protein from Pseudomonas putida (natural protein)”, the stoichiometry N amounted to 2.
